Measured values published in publication doi:10.1101/2022.06.13.495963 (bioRxiv, 2022).

Target: B-Myb negative regulatory domain, amino acids 440-600 (NRD^440-600) (human, UniProt P10244-1 440-600)
Assay: ITC

Chain of B-Myb negative regulatory domain, amino acids 440-600 (NRD^440-600) (P10244 440-600): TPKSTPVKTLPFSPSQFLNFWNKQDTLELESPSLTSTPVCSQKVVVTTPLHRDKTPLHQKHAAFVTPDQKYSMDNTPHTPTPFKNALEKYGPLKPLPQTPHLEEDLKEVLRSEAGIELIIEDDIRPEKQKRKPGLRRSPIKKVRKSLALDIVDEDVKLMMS

B1: B-Myb DNA binding domain (B-Myb^34-183) (domain or fragment)
chain: not shown
Kd: 4.5 µM
